From PMC10121219

Biological target: insulin receptor ectodomain (UniProt P06213)
Assay: SPR; insulin receptor immobilised; svPDE flowed at 0.25, 0.5, 1.0, 2.0, 4.0 and 8.0 uM; KD by steady-state affinity model; apparent

For “snake venom phosphodiesterase (svPDE) from Naja atra (from UniProt A0A2D0TC04 1-830)”, the Kd was 1800 nM.
